± gives the uncertainty stated by the source.
Experiment: self-splicing fitness, log relative to wild type (ln ratio); higher = more splicing; Tetrahymena group I intron in knt gene, E. coli kanamycin selection, DiMSum; sequences stand for … in CUCUCU…GGAGGGAAAAGUUAUCAGGCAUGCACCUGGUAGCUAGUCUUUAAACCAAUAGAUUGCAUCGGUUUAAAAGGCAAGACCGUCAAAUUGCGGGAAAGGGGUCAACAGCCGUUCAGUACCAAGUCUCAGGGGAAACUUUGAGAUGGCCUUGCAAAGGGUAUGGUAAUAAGCUGACGGACAUGGUCCUAACCACGCAGCCAAGUCCUAAGUCAACAGAUCUUCUGUUGAUAUGGAUGCAGUUCACAGACUAAAUGUCGGUCGGGGAAGAUGUAUUCUUCUCAUAAGAUAUAGUCGGACCUCUCCUUAAUGGGAGCUAGCGGAUGAAGUGAUGCAACACUGGAGCCGCUGGGAACUAAUUUGUAUGCGAAAGUAUAUUGAUUAGUUUUGGAGUACUCGUGGUCG
Method in brief: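 Six replicate transformations of E. coli BL21(DE3) with a pET-22b(+) library were grown overnight at 37°C or 30°C. The library randomised all eight P1ex-region intron nucleotides, the intron lying in the knt kanamycin-resistance gene, and plates were LB agar with or without 25 μg/mL kanamycin plus 100 μg/mL carbenicillin, 50 μM IPTG and 0.2% rhamnose. Pooled colonies were amplicon-sequenced on an Illumina HiSeq 2500, and fitness is the DiMSum error-weighted combination of wild-type-normalised replicate fold changes, kanamycin versus none.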

Sequence	self-splicing fitness (ln) (37 °C)	self-splicing fitness (ln) (30 °C)
CGAAAGCAAUAUUACGAGGU	-1.64 ± 0.3	–
CGAAAGCAAUAUUACGAGUU	-2.21 ± 0.23	-3.72 ± 0.44
CGAAAGCAAUAUUACGCAUC	-2.75 ± 0.36	–
CGAAAGCAAUAUUACGCAUU	-2.94 ± 0.37	-4.46 ± 0.42
CGAAAGCAAUAUUACGCCGU	-0.862 ± 0.12	-2.98 ± 0.16
CGAAAGCAAUAUUACGCGAA	-2.02 ± 0.3	-1.82 ± 0.24
CGAAAGCAAUAUUACGCUAA	-1.53 ± 0.21	-3.88 ± 0.4
CGAAAGCAAUAUUACGCUAC	–	-2.53 ± 0.3
CGAAAGCAAUAUUACGGAGC	-2.22 ± 0.16	-4.16 ± 0.25
CGAAAGCAAUAUUACGGCUG	0.181 ± 0.13	0.127 ± 0.11
CGAAAGCAAUAUUACGGUAU	-1.2 ± 0.19	-3.81 ± 0.29
CGAAAGCAAUAUUACGGUUA	-2.11 ± 0.1	-1.85 ± 0.12
CGAAAGCAAUAUUACGUCCC	-0.0504 ± 0.23	-0.693 ± 0.14
CGAAAGCAAUAUUACGUGGU	-2.11 ± 0.13	-3.92 ± 0.14
CGAAAGCAAUAUUACGUUUC	-2.15 ± 0.16	-3.81 ± 0.2
CGACAGCAAUAUUACGAAAC	-2.39 ± 0.25	-3.49 ± 0.27
CGACAGCAAUAUUACGACCA	-0.397 ± 0.12	-0.898 ± 0.1
CGACAGCAAUAUUACGACUG	-0.0407 ± 0.14	-1.32 ± 0.089
CGACAGCAAUAUUACGAGCC	-1.68 ± 0.26	-3.59 ± 0.22
CGACAGCAAUAUUACGAGGC	-2.49 ± 0.31	-1.34 ± 0.13

Sequence	self-splicing fitness (ln) (37 °C)	self-splicing fitness (ln) (30 °C)
CGACAGCAAUAUUACGAUUA	-0.873 ± 0.1	-1.99 ± 0.12
CGACAGCAAUAUUACGCAUC	-2.75 ± 0.25	-3.1 ± 0.14
CGACAGCAAUAUUACGCCAU	-1.51 ± 0.32	-3.77 ± 0.3
CGACAGCAAUAUUACGCGUA	-1.58 ± 0.15	-1.75 ± 0.28
CGACAGCAAUAUUACGGCUU	-1.6 ± 0.14	-3.12 ± 0.16
CGACAGCAAUAUUACGGGUU	-2.01 ± 0.12	-3.47 ± 0.12
CGACAGCAAUAUUACGGUCC	-0.69 ± 0.14	-1.13 ± 0.11
CGACAGCAAUAUUACGGUUA	0.0311 ± 0.067	-0.601 ± 0.062
CGACAGCAAUAUUACGUAAA	-2.28 ± 0.21	-3.02 ± 0.15
CGACAGCAAUAUUACGUACA	-0.392 ± 0.099	-0.66 ± 0.078
CGACAGCAAUAUUACGUAGA	-2.12 ± 0.15	-3.57 ± 0.13
CGACAGCAAUAUUACGUAGC	-2.21 ± 0.16	-3.61 ± 0.18
CGACAGCAAUAUUACGUAUU	-2.53 ± 0.16	-3.09 ± 0.14
CGACAGCAAUAUUACGUCAA	-1.21 ± 0.12	-1.99 ± 0.14
CGACAGCAAUAUUACGUCCC	–	-0.895 ± 0.47
CGACAGCAAUAUUACGUCUC	-2.13 ± 0.2	-1.98 ± 0.13
CGACAGCAAUAUUACGUGAC	-2.61 ± 0.31	-3.67 ± 0.24
CGACAGCAAUAUUACGUGGG	-1.54 ± 0.1	-3.19 ± 0.14
CGACAGCAAUAUUACGUUCC	-0.935 ± 0.14	-1.82 ± 0.11

Source: the supplement of paper PMC7877785
